For the test, the target named is T1, Wild-type EGFR-GFP (UniProt P00533 25-1210).
T1 construct: whole, on cells; not shown: GFP fusion
Put plainly: co-localization by confocal and 3D-SIM microscopy, co-overexpression in CL1-5 cells (FIG. 1C). From the text:
FIGS. 1A-1C show interaction between PINK1 and EGFR in lung adenocarcinoma cells. […] 3D-structured illumination microscopy images specifically disclosed the interaction beneath the cytoplasmic membrane (III and IV).

B1: myc-fused full-length PINK1 construct (amino acids 1-581) (enzyme)
chain: MAVRQALGRGLQLGRALLLRFTGKPGRAYGLGRPGPAAGCVRGERPGWAAGPGAEPRRVGLGLPNRLRFFRQSVAGLAARLQRQFVVRAWGCAGPCGRAVFLAFGLGLGLIEEKQAESRRAVSACQEIQAIFTQKSKPGPDPLDTRRLQGFRLEEYLIGQSIGKGCSAAVYEATMPTLPQNLEVTKSTGLLPGRGPGTSAPGEGQERAPGAPAFPLAIKMMWNISAGSSSEAILNTMSQELVPASRVALAGEYGAVTYRKSKRGPKQLAPHPNIIRVLRAFTSSVPLLPGALVDYPDVLPSRLHPEGLGHGRTLFLVMKNYPCTLRQYLCVNTPSPRLAAMMLLQLLEGVDHLVQQGIAHRDLKSDNILVELDPDGCPWLVIADFGCCLADESIGLQLPFSSWYVDRGGNGCLMAPEVSTARPGPRAVIDYSKADAWAVGAIAYEIFGLVNPFYGQGKAHLESRSYQEAQLPALPESVPPDVRQLVRALLQREASKRPSARVAANVLHLSLWGEHILALKNLKLDKMVGWLLQQSAATLLANRLTEKCCVETKMKMLFLANLECETLCQAALLLCSWRAAL
notes: also called PINK1-myc; not shown: myc tag
Consider B1, for which the binding result is on record as “binds”.

The values above are taken from US20180112192A1 (NATIONAL TAIWAN UNIVERSITY, published 2018).
